Changes are numbered by the printed parent chain. “And” between values parts separate entries of the source, which are not always exact repeats. Equal entries are not always repeated.
T1: recombinant human PLGF (human, UniProt P49763-2 19-149, limits assumed)
T1 construct: Negative control; also called PIGF
T1 sequence (looked up): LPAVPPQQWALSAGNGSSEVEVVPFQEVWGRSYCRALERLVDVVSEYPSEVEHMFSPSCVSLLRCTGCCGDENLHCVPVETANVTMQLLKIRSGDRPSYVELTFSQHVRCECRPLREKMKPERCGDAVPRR

T2: recombinant human VEGF110 (human, UniProt P15692-4 27-136, limits assumed)
T2 construct: Made in house; also called hVEGF110
T2 sequence (looked up): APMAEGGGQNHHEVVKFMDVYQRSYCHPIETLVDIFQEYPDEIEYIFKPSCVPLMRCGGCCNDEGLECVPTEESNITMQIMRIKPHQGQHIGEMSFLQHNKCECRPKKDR

T3: recombinant human VEGF121 (human, UniProt P15692 27-147)
T3 construct: mature; Isoform VEGF121 of the entry; also called hVEGF121
T3 sequence (looked up): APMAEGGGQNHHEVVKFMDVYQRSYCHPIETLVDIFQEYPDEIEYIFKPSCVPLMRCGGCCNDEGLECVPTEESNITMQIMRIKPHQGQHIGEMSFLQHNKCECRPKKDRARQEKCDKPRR

B1: 578minmax (scFv)
scFv: EIVMTQSPSTLSASVGDRVIITCQASEIIHSWLAWYQQKPGKAPKLLIYLASTLASGVPSRFSGSGSGAEFTLTISSLQPDDFATYYCQNVYLASTNGANFGQGTKLTVLGGGGGSGGGGSGGGGSGGGGSEVQLVESGGGLVQPGGSLRLSCTASGFSLTDYYYMTWVRQAPGKGLEWVGFIDPDDDPYYATWAKGRFTISRDTSKNTVYLQMNSLRAEDTAVYYCAGGDHNSGWGLDIWGQGTLVTVSS
notes: also called ESBA903; 903
B2: 578-min (scFv)
scFv: B1 scFv with T154A, G181S, T205N, V210L, G229K
notes: also called EP578 min; Protein Nr; 820
B3: 509-maxII (scFv)
scFv: EIVMTQSPSTLSASVGDRVIITCQASQNIRIWLSWYQQKPGKAPKLLIYKASTLESGVPSRFSGSGSGTEFTLTISSLQPDDFATYYCQNNAHYSTNGGTFGQGTKLTVLGGGGGSGGGGSGGGGSGGGGSEVQLVESGGGLVQPGGSLRLSCTASGFSLSSYYMSWVRQAPGKGLEWVGILDYVGDTDYASWAKGRFTISKDASKNTVYLQMNSLRAEDTAVYYCARTDDSRGWGLNIWGQGTLVTVSS
notes: VH tied by name; also called Protein Nr

How the values were obtained:
[1] = target: recombinant rat VEGF164 (rat) (UniProt P16612); assay: Biacore SPR, pH 7.4 (data not shown)
[2] = target: recombinant murine VEGF164 (mouse) (UniProt Q00731); assay: Biacore SPR, pH 7.4 (data not shown)
[3] = target: T4, recombinant human VEGF165 (human, UniProt P15692 27-191); assay: Biacore SPR, VEGF immobilized, pH 5
T4 construct: mature; Isoform VEGF165 of the entry; also called hVEGF165; hVEGF
Description: In this example, the Biacore-binding ability of scFvs was tested and the binding affinity was measured using the exemplary surface plasmon resonance method with BIAcore™-T100. The VEGF proteins, tested for binding by these scFv candidates, in this example and later examples include purified Escherichia coli-expressed recombinant human VEGF₁₆₅ (PeproTech EC Ltd.), recombinant human VEGF₁₂₁ (PeproTech EC Ltd.), recombinant human VEGF₁₁₀ (ESBATech AG), recombinant murine VEGF₁₆₄ (PeproTech EC Ltd.), recombinant rat VEGF₁₆₄ (Biovision), recombinant rabbit VEGF₁₁₀ (ESBATech AG), and recombinant human PLGF (PeproTech EC Ltd.). For the surface plasmon resonance experiment, carboxymethylated dextran biosensor chips (CM4, GE Healthcare) were activated with N-ethyl-N′-(3-dimethylaminopropyl) carbodiimide hydrochloride and N-hydroxysuccinimide according to the supplier's instructions. Each of the 6 different VEGF forms, as exemplified above, was coupled to 1 of the 4 different flow cells on a CM4 sensor chip using a standard amine-coupling procedure. […] The 4th flow cell of each chip was treated similarly except no proteins were immobilized prior to blocking, and the flow cell was used as in-line reference. […] Dissociation of the anti-VEGF scFv from the VEGF on the CM4 chip was allowed to proceed for 10 min at 25° C. Sensorgrams were generated for each anti-VEGF scFv sample after in-line reference cell correction followed by buffer sample subtraction. The apparent dissociation rate constant (kd), the apparent association rate constant (kₐ) and the apparent dissociation equilibrium constant (KD) were calculated using one-to-one Langmuir binding model with BIAcore T100 evaluation Software version 1.1. […]
Target sequence in this assay (P15692 other isoform, or with tags, fused parts or gaps): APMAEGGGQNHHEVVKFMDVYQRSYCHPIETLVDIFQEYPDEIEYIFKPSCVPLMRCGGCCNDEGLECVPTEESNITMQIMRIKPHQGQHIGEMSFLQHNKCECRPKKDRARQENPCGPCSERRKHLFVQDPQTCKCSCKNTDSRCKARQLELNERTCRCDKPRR

[4] = target: recombinant rat VEGF164 (rat) (UniProt P16612); assay: Biacore SPR; ratio to hVEGF165
[5] = target: recombinant murine VEGF164 (mouse) (UniProt Q00731); assay: Biacore SPR; ratio to hVEGF165
[6] = target: recombinant rat VEGF164 (rat) (UniProt P16612); assay: Biacore SPR, VEGF immobilized, pH 5
[7] = target: recombinant murine VEGF164 (mouse) (UniProt Q00731); assay: Biacore SPR, VEGF immobilized, pH 5
[8] = target: recombinant rat VEGF164 (rat) (UniProt P16612); assay: cell-based or functional assay
[9] = target: recombinant murine VEGF164 (mouse) (UniProt Q00731); assay: cell-based or functional assay
[10] = target: T4, recombinant human VEGF165; assay: cell-based or functional assay
[11] = target: T4, recombinant human VEGF165; assay: cell-based or functional assay; remark: listed apart in the source
[12] = target: recombinant murine VEGF164 (mouse) (UniProt Q00731); assay: Biacore SPR, pH 5 (text; Table 8b prints 5.67E-10)
[13] = target: T4, recombinant human VEGF165; assay: cell-based or functional assay; remark: listed apart in the source
Target sequence in this assay (P15692 other isoform, or with tags, fused parts or gaps): as above

[14] = target: T4, recombinant human VEGF165; assay: VEGFR1/Fc competition ELISA on coated hVEGF165; ratio to Lucentis
Description: After 30-60 min of incubation at room temperature, the mixtures were transferred to the human VEGF₁₆₅ immobilized plate and incubated for 90 min. […] Optical density at 450 nm (OD 450 nm) was measured using a Sunrise microplate reader (Tecan). Data were analyzed as above, and EC₅₀ values were calculated from the dose-response curves of the scFvs.
Target sequence in this assay (P15692 other isoform, or with tags, fused parts or gaps): as above

[15] = target: T1, recombinant human PLGF; assay: Biacore SPR, PlGF immobilized, pH 5
Description: (§1) In this example, the Biacore-binding ability of scFvs was tested and the binding affinity was measured using the exemplary surface plasmon resonance method with BIAcore™-T100. The VEGF proteins, tested for binding by these scFv candidates, in this example and later examples include purified Escherichia coli-expressed recombinant human VEGF₁₆₅ (PeproTech EC Ltd.), recombinant human VEGF₁₂₁ (PeproTech EC Ltd.), recombinant human VEGF₁₁₀ (ESBATech AG), recombinant murine VEGF₁₆₄ (PeproTech EC Ltd.), recombinant rat VEGF₁₆₄ (Biovision), recombinant rabbit VEGF₁₁₀ (ESBATech AG), and recombinant human PLGF (PeproTech EC Ltd.). For the surface plasmon resonance experiment, carboxymethylated dextran biosensor chips (CM4, GE Healthcare) were activated with N-ethyl-N′-(3-dimethylaminopropyl) carbodiimide hydrochloride and N-hydroxysuccinimide according to the supplier's instructions. Each of the 6 different VEGF forms, as exemplified above, was coupled to 1 of the 4 different flow cells on a CM4 sensor chip using a standard amine-coupling procedure. […] The 4th flow cell of each chip was treated similarly except no proteins were immobilized prior to blocking, and the flow cell was used as in-line reference. […] Dissociation of the anti-VEGF scFv from the VEGF on the CM4 chip was allowed to proceed for 10 min at 25° C. Sensorgrams were generated for each anti-VEGF scFv sample after in-line reference cell correction followed by buffer sample subtraction. The apparent dissociation rate constant (kd), the apparent association rate constant (kₐ) and the apparent dissociation equilibrium constant (KD) were calculated using one-to-one Langmuir binding model with BIAcore T100 evaluation Software version 1.1.

[16] = target: T4, recombinant human VEGF165; assay: Biacore SPR, VEGF immobilized, pH 5; remark: listed apart in the source
Description: as §1
Target sequence in this assay (P15692 other isoform, or with tags, fused parts or gaps): as above

[17] = target: T4, recombinant human VEGF165; assay: Biacore SPR, VEGF immobilized, pH 7.4
Description: as §1
Target sequence in this assay (P15692 other isoform, or with tags, fused parts or gaps): as above

[18] = target: T2, recombinant human VEGF110; assay: Biacore SPR, VEGF immobilized, pH 5
Description: as §1

[19] = target: T4, recombinant human VEGF165; assay: Biacore SPR, VEGF immobilized, pH 5; remark: listed apart in the source
Description: as §1
Target sequence in this assay (P15692 other isoform, or with tags, fused parts or gaps): as above

[20] = target: T3, recombinant human VEGF121; assay: Biacore SPR, VEGF immobilized, pH 5
Description: as §1

| Binder | koff [3] [s⁻¹] | kon [3] [M⁻¹ s⁻¹] | koff [6] [s⁻¹] | kon [6] [M⁻¹ s⁻¹] | koff [7] [s⁻¹] | kon [7] [M⁻¹ s⁻¹] | Rel. activity in HUVEC assay (EC50Luc[nM]/EC50test[nM]) hVEGF [11] | Rel. activity in HUVEC assay (EC50Luc[nM]/EC50test[nM]) [13] | Rel. activity hVEGR1 comp. ELISA (EC50Luc[nM]/EC50test[nM]) [14] | binding result [15] | koff [16] [s⁻¹] | kon [16] [M⁻¹ s⁻¹] | koff [17] [s⁻¹] | kon [17] [M⁻¹ s⁻¹] | koff [18] [s⁻¹] | kon [18] [M⁻¹ s⁻¹] | koff [19] [s⁻¹] | kon [19] [M⁻¹ s⁻¹] | koff [20] [s⁻¹] | kon [20] [M⁻¹ s⁻¹] | also measured |
| --- | --- | --- | --- | --- | --- | --- | --- | --- | --- | --- | --- | --- | --- | --- | --- | --- | --- | --- | --- | --- | --- |
| B1 | 0.000504 | 806000 | 0.000641 | 858000 | 0.000657 | 1.14e+06 | 1.6 and 1.4 | – | – | – | – | – | – | – | – | – | – | – | – | – | Kd [1]: 0.0219 nM; Kd [2]: 0.0273 nM; Kd [3]: 0.625 nM; relative value KdhVEGF165/KdmVEGF164 (rat block) [4]: 0.8; relative value kdhVEGF165/kdmVEGF164 (rat block) [4]: 0.8; relative value KdhVEGF165/KdmVEGF164 [5]: 1.1; relative value kdhVEGF165/kdmVEGF164 [5]: 0.8; Kd [6]: 0.748 nM; Kd [7]: 0.567 nM; EC50, HUVEC proliferation induced by rat VEGF164 [8]: 0.0697 nM; EC50, HUVEC proliferation induced by mouse VEGF164 [9]: 0.0631 nM; EC50, HUVEC proliferation induced by hVEGF165 [10]: 0.0552 nM; potency in HUVEC assay relative to Lucentis [10]: ~1.6 fold; Kd [12]: 0.576 nM |
| B2 | 0.0103 | 1.14e+06 | 0.0182 | 1.7e+06 | 0.0151 | 1.4e+06 | 0.1 | 0.1 | 4.8 | no binding | 0.0103 | 1.14e+06 | 0.000202 | 1.11e+06 | 0.0104 | 915000 | 0.0103 | 1.14e+06 | 0.0088 | 961000 | EC50 in HUVEC assay (FIG. 8d) [10]: 1.53 nM |
| B3 | – | – | 0.0266 | 1.47e+07 | 0.0601 | 3.47e+07 | – | 0.0009 | 0.09 | no binding | 0.00282 | 838000 | 0.0198 | 7.59e+06 | 0.00133 | 901000 | 0.00282 | 838000 | 0.00123 | 897000 | – |
